Measured values reported in patent publication US20190263918A1 (SHANGHAI JIAO TONG UNIVERSITY SCHOOL OF MEDICINE, published 2019).
Substitutions are numbered along the chain they refer to. Numbers in names are those of the source.

T1: recombinant murine CD40 protein (murine, UniProt P27512 24-193, limits assumed)
T1 construct: Bought; coated on the ELISA plate; also called mouse CD40; mCD40
T1 sequence (looked up): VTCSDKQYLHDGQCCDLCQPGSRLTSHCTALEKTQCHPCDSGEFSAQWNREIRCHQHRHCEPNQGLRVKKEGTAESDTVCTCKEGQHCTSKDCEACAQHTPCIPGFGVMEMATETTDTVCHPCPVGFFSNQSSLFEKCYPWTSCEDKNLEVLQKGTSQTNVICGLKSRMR

B1: Fc fragment of heavy chain constant region G1-GASDALIE (hIgG1 G236A/S239D/A330L/I332E) (other)
chain: PELLAGPDVFLFPPKPKDTLMISRTPEVTCVVVDVSHEDPEVKFNWYVDGVEVHNAKTKPREEQYNSTYRVVSVLTVLHQDWLNGKEYKCKVSNKALPLPEEKTISKAKGQPREPQVYTLPPSRDELTKNQVSLTCLVKGFYPSDIAVEWESNGQPENNYKTTPPVLDSDGSFFLYSKLTVDKSRWQQGNVFSCSVMHEALHNHYTQKSLSLSPGK
B2: human FcγRIIB extracellular domain protein (receptor, UniProt P31994 43-217, looked up)
chain: TPAAPPKAVLKLEPQWINVLQEDSVTLTCRGTHSPESDSIQWFHNGNLIPTHTQPSYRFKANNNDSGEYTCQTGQTSLSDPVHLTVLSEWLVLQTPHLEFQEGETIVLRCHSWKDKPLVKVTFFQNGKSKKFSRSDPNFSIPQANHSHSGDYHCTGNIGYTLYSSKPVTITVQAP
notes: extracellular domain; SPR: His-tagged, immobilised; ELISA: biotinylated; also called hFcγRIIB; CD32b
B3: Fc fragment of heavy chain constant region V9(H1) (hIgG1 G237D/P238D/P271G/A330R) (other)
chain: B1 chain with A5G, G6D, P7D, D8S, P40G, L99R, E101I
B4: human FcγRIIA-R131 extracellular domain protein (receptor, UniProt P12318 34-217, looked up)
chain: QAAAPPKAVLKLEPPWINVLQEDSVTLTCQGARSPESDSIQWFHNGNLIPTHTQPSYRFKANNNDSGEYTCQTGQTSLSDPVHLTVLSEWLVLQTPHLEFQEGETIMLRCHSWKDKPLVKVTFFQNGKSQKFSRLDPTFSIPQANHSHSGDYHCTGNIGYTLFSSKPVTITVQVPSMGSSSPMG
notes: extracellular domain; SPR: His-tagged, immobilised; ELISA: biotinylated; also called hFcγRIIA-R131; CD32a
B5: Anti-hCD40-hIgG1 (antibody)
heavy: not shown
light: DIQMTQSPSSVSASVGDRVTITCRASQGIYSWLAWYQQKPGKAPNLLIYTASTLQSGVPSRFSGSGSGTDFTLTISSLQPEDFATYYCQQANIFPLTFGGGTKVEIKRTVAAPSVFIFPPSDEQLKSGTASVVCLLNNFYPREAKVQWKVDNALQSGNSQESVTEQDSKDSTYSLSSTLTLSKADYEKHKVYACEVTHQGLSSPVTKSFNRGEC
notes: Human anti-human CD40 antibody with the light chain and VH of CP-870893; heavy chain constant region G1
B6: Anti-hCD40-hIgG2(V11) (antibody)
heavy: not shown
light: B5 light
notes: Human anti-human CD40 antibody, heavy chain constant region V11(H2), i.e. JAC1; also called anti-human CD40 antibody comprising JAC1
B7: Anti-hCD40-hIgG3 (antibody)
heavy: not shown
light: B5 light
notes: Human anti-human CD40 antibody, heavy chain constant region G3
B8: Anti-hCD40-hIgG2-NA (antibody)
heavy: not shown
light: B5 light
notes: Human anti-human CD40 antibody, heavy chain constant region G2-NA (N297A)
B9: Anti-mCD40-hIgG1(V11) (antibody)
heavy: EVQLVESDGGLVQPGRSLKLPCAASGFTFSDYYMAWVRQAPTKGLEWVASISYDGSSTYYRDSVKGRFTISRDNAKSTLYLQMDSLRSEDTATYYCGRHSSYFDYWGQGVMVTVSSATTKGPSVFPLAPSSKSTSGGTAALGCLVKDYFPEPVTVSWNSGALTSGVHTFPAVLQSSGLYSLSSVVTVPSSSLGTQTYICNVNHKPSNTKVDKRVEPKSCDKTHTCPPCPAPELLGDDSVFLFPPKPKDTLMISRTPEVTCVVVDVSDEDGEVKFNWYVDGVEVHNAKTKPREEQYNSTYRVVSVLTVLHQDWLNGKEYKCKVSNKALPRPIEKTISKAKGQPREPQVYTLPPSRDELTKNQVSLTCLVKGFYPSDIAVEWESNGQPENNYKTTPPVLDSDGSFFLYSKLTVDKSRWQQGNVFSCSVMHEALHNHYTQKSLSLSPGK
light: DTVLTQSPALAVSPGERVTISCRASDSVSTLMHWYQQKPGQQPKLLIYLASHLESGVPARFSGSGSGTDFTLTIDPVEADDTATYYCQQSWNDPWTFGGGTKLELKRTVAAPSVFIFPPSDEQLKSGTASVVCLLNNFYPREAKVQWKVDNALQSGNSQESVTEQDSKDSTYSLSSTLTLSKADYEKHKVYACEVTHQGLSSPVTKSFNRGEC
notes: Chimeric anti-murine CD40 antibody, heavy chain constant region V11(H1)
B10: Anti-mCD40-hIgG2-GASDALIE (antibody)
heavy: EVQLVESDGGLVQPGRSLKLPCAASGFTFSDYYMAWVRQAPTKGLEWVASISYDGSSTYYRDSVKGRFTISRDNAKSTLYLQMDSLRSEDTATYYCGRHSSYFDYWGQGVMVTVSSASTKGPSVFPLAPCSRSTSESTAALGCLVKDYFPEPVTVSWNSGALTSGVHTFPAVLQSSGLYSLSSVVTVPSSNFGTQTYTCNVDHKPSNTKVDKTVERKCCVECPPCPAPELLAGPDVFLFPPKPKDTLMISRTPEVTCVVVDVSHEDPEVKFNWYVDGVEVHNAKTKPREEQYNSTYRVVSVLTVLHQDWLNGKEYKCKVSNKALPLPEEKTISKAKGQPREPQVYTLPPSRDELTKNQVSLTCLVKGFYPSDIAVEWESNGQPENNYKTTPPVLDSDGSFFLYSKLTVDKSRWQQGNVFSCSVMHEALHNHYTQKSLSLSPGK
light: B9 light
notes: Chimeric anti-murine CD40 antibody
B11: Anti-mCD40-hIgG2(V11) (antibody)
heavy: B10 heavy with A232G, G233D, P234D, D235S, H264D, P267G, L326R, E328I
light: B9 light
notes: Chimeric anti-murine CD40 antibody, heavy chain constant region V11(H2), i.e. JAC1; also called anti-murine CD40 antibody comprising JAC1

Tests used:
[1] = target: B2; assay: SPR, Biacore T100, FcγR extracellular domain immobilised, 1:1 model
[2] = target: B4; assay: as above
[3] = target: Fc fragment of heavy chain constant region G1 (hIgG1) (human, UniProt P0DOX5 234-449 = IgG part); assay: as above
[4] = target: T2, human FcγRIIIA-F158 extracellular domain protein (human, UniProt P08637 17-208); assay: SPR, Biacore T100, FcγR extracellular domain immobilised
T2 construct: extracellular domain; SPR: His-tagged, immobilised; also called hFcγRIIIA-F158; CD16a
T2 sequence (P08637 17-208): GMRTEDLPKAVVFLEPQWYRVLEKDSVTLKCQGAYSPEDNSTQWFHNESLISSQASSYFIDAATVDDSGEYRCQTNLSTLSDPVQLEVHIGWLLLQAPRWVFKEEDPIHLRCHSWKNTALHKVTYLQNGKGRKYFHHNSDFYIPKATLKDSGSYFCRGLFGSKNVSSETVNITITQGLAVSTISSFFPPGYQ

[5] = target: T3, human FcγRI extracellular domain protein (human, UniProt P12314 16-292); assay: SPR, Biacore T100, FcγR extracellular domain immobilised, 1:1 model
T3 construct: extracellular domain; also called hFcγRI; CD64
T3 sequence (P12314 16-292): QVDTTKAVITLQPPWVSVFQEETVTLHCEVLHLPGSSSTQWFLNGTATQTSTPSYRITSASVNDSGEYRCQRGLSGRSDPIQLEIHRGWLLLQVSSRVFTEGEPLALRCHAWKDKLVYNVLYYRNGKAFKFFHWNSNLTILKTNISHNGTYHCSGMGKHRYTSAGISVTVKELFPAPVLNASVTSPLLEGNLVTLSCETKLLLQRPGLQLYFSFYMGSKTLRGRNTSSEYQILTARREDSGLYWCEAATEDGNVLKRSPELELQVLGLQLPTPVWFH

[6] = target: T4, recombinant human CD40 protein (human, UniProt P25942 21-193); assay: ELISA: plate coated with recombinant human CD40, antibody in gradient dilutions, biotinylated anti-human Igκ light chain secondary antibody, SAV-HRP, A650
T4 construct: Bought; coated on the ELISA plate; also called hCD40
T4 sequence (P25942 21-193 limits assumed): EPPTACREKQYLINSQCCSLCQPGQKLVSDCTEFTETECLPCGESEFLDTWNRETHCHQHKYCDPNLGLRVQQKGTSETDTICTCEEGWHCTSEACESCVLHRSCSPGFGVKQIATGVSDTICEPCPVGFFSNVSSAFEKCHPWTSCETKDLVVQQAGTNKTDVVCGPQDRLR
Description: (§1) For assay on anti-human CD40 antibodies, an ELISA plate was coated with recombinant human CD40 protein (Novoprotein Scientific Inc.) overnight at atmospheric temperature, blocked using 1% BSA at room temperature for 2 h, and then washed three times with PBST (0.05% Tween 20 in PBS). To each well was added […] gradient dilutions of the human agonistic CD40 antibody. The plate was incubated at room temperature for 1 h and washed four times with PBST. Then, 100 ng/ml biotinylated secondary antibody against human Igκ light chain was added, incubated at room temperature for 1 h and washed 4 times with PBST. SAV-HRP at an appropriate concentration was added, incubated at room temperature for 1 h. Then, chromogenic substrate was added to react for 5 minutes, and optical absorbance was determined at 650 nm.

[7] = target: B4; assay: ELISA: plate coated with the anti-human CD40 antibody, biotinylated human FcγRIIA-R131 extracellular domain, streptavidin-HRP, A650 [FcγRIIA-R131 panels]
Description: (§2) The ELISA plate was coated with 100 μL antibody at an appropriate concentration overnight, supernatant being discarded. The plate was blocked with 1% BSA in PBS for 2 hours, followed by washing with PBST (PBS with 0.05% Tween 20). Then, biotinylated FcγR extracellular domain protein (Sino Biologic Inc., Beijing China) at a concentration as appropriate was added and incubated at room temperature for 1 hour, supernatant being discarded, followed by PBST wash. Streptavidin-HRP (BD Biosciences) was added and incubated at room temperature for 1 hour for detection of biotin protein. After removal of supernatant, developing solution was added to react for 20-40 minutes, and absorbance was determined at 650 nm (A650).

[8] = target: B4; assay: ELISA: plate coated with the anti-human CD40 antibody, biotinylated human FcγRIIA-R131 extracellular domain, streptavidin-HRP, A650 [upper FcγRIIA-R131 panel]
Description: as §2

[9] = target: T1, recombinant murine CD40 protein; assay: ELISA: plate coated with recombinant murine CD40, antibody in gradient dilutions, HRP-labelled goat anti-human IgG-Fc secondary antibody, A650
Description: as §1
For assay on anti-murine CD40 antibodies, the process was the same, expect that the plate was coated with recombinant murine CD40 protein (Novoprotein Scientific Inc.) and HRP-labeled goat anti-human IgG-Fc antibody was used as the secondary antibody.

[10] = target: B2; assay: SPR (refers to Table 4, Fc fragments)

Binder: B1
Kd [1]: 740 nM | Kd [2]: 63 nM

Binder: B2
Kd [3]: 3000 nM

Binder: B3
binding result [4]: no binding | Kd [1]: 94 nM | Kd [5]: 580 nM | Kd [2]: 4100 nM

Binder: B4
Kd [3]: 1200 nM

Binder: B5
EC50 (read off the curve) [6]: ~0.2 µg/mL | binding result [7]: binds

Binder: B6
binding result [8]: binds

Binder: B7
EC50 (read off the curve) [6]: ~0.1 µg/mL

Binder: B8
binding result [7]: no binding

Binder: B9
EC50 (read off the curve) [9]: ~0.1 µg/mL

Binder: B10
binding result [10]: binds

Binder: B11
EC50 (read off the curve) [9]: ~0.1 µg/mL
